From PMC12700824 (2025)

Target: FAM118B24–334-F122R (human, UniProt Q9BPY3 24-334, F122R)
Assay: ITC

B1: FAM118B24–334-L32R (domain or fragment)
chain: PTKKPRKLRPSLKTKKPRELVLVIGTGISAAVAPQVPALKSWKGLIQALLDAAIDFDLLEDEESKKFQKCLHEDKNLVHVAHDLIQKLSPRTSNVRSTFFKDCLYEVFDDLESKMEDSGKQLLQSVLHLMENGALVLTTNFDNLLELYAADQGKQLESLDLTDEKKVLEWAQEKRKLSVLHIHGVYTNPSGIVLHPAGYQNVLRNTEVMREIQKLYENKSFLFLGCGWTVDDTTFQALFLEAVKHKSDLEHFMLVRRGDVDEFKKLRENMLDKGIKVISYGDDYADLPEYFKRLTCEISTRGTSAGMVREG
Kd: 233 nM
